Series [1] has as its target C. thermophilum Vps1 GG (minimal GTPase-BSE fusion) (C. thermophilum). Kind of series: SEC-MALS. For orientation: In gel filtration, larger molecules generally elute earlier.
The series “SEC-MALS” concerns the molecule itself. Kind of series: SEC-MALS.

In general, stoichiometry N refers to a count of units in the complex or per binding partner. In the case of “C. thermophilum Vps1 GG (minimal GTPase-BSE fusion) (domain or fragment)”, the stoichiometry N in series [1] was found to be 2.

B1: S. cerevisiae Vps1 G436D (natural protein)
chain: MDEHLISTINKLQDALAPLGGGSQSPIDLPQITVVGSQSSGKSSVLENIVGRDFLPRGTGIVTRRPLVLQLINRRPKKSEHAKVNQTANELIDLNINDDDKKKDESGKHQNEGQSEDNKEEWGEFLHLPGKKFYNFDEIRKEIVKETDKVTGANSGISSVPINLRIYSPHVLTLTLVDLPGLTKVPVGDQPPDIERQIKDMLLKYISKPNAIILSVNAANTDLANSDGLKLAREVDPEGTRTIGVLTKVDLMDQGTDVIDILAGRVIPLRYGYIPVINRGQKDIEHKKTIREALENERKFFENHPSYSSKAHYCGTPYLAKKLNSILLHHIRQTLPEIKAKIEATLKKYQNELINLGPETMDSASSVVLSMITDFSNEYAGILDGEAKELSSQELSGGARISYVFHETFKNGVDSLDPFDQIKDSDIRTIMYNSSDSAPSLFVGTEAFEVLVKQQIRRFEEPSLRLVTLVFDELVRMLKQIISQPKYSRYPALREAISNQFIQFLKDATIPTNEFVVDIIKAEQTYINTAHPDLLKGSQAMVMVEEKLHPRQVAVDPKTGKPLPTQPSSSKAPVMEEKSGFFGGFFSTKNKKKLAALESPPPVLKATGQMTERETMETEVIKLLISSYFSIVKRTIADIIPKALMLKLIVKSKTDIQKVLLEKLYGKQDIEELTKENDITIQRRKECKKMVEILRNASQIVSSV
Take B1: the “stoichiometry N” value in the series “SEC-MALS” came out at 2.

The record behind these values is PMC6168280 (The Journal of Cell Biology, 2018).
